For one substance, recovery of c-MET cells results are on record in patent US20180231560A1.

The assay addresses c-MET protein (Homo sapiens (Human)) (UniProt P08581). Briefly: immunomagnetic capture of spiked c-MET expressing cell lines by anti-c-MET ferrofluid.
Sequence of UniProt P08581 (P08581 25-1390 limits assumed): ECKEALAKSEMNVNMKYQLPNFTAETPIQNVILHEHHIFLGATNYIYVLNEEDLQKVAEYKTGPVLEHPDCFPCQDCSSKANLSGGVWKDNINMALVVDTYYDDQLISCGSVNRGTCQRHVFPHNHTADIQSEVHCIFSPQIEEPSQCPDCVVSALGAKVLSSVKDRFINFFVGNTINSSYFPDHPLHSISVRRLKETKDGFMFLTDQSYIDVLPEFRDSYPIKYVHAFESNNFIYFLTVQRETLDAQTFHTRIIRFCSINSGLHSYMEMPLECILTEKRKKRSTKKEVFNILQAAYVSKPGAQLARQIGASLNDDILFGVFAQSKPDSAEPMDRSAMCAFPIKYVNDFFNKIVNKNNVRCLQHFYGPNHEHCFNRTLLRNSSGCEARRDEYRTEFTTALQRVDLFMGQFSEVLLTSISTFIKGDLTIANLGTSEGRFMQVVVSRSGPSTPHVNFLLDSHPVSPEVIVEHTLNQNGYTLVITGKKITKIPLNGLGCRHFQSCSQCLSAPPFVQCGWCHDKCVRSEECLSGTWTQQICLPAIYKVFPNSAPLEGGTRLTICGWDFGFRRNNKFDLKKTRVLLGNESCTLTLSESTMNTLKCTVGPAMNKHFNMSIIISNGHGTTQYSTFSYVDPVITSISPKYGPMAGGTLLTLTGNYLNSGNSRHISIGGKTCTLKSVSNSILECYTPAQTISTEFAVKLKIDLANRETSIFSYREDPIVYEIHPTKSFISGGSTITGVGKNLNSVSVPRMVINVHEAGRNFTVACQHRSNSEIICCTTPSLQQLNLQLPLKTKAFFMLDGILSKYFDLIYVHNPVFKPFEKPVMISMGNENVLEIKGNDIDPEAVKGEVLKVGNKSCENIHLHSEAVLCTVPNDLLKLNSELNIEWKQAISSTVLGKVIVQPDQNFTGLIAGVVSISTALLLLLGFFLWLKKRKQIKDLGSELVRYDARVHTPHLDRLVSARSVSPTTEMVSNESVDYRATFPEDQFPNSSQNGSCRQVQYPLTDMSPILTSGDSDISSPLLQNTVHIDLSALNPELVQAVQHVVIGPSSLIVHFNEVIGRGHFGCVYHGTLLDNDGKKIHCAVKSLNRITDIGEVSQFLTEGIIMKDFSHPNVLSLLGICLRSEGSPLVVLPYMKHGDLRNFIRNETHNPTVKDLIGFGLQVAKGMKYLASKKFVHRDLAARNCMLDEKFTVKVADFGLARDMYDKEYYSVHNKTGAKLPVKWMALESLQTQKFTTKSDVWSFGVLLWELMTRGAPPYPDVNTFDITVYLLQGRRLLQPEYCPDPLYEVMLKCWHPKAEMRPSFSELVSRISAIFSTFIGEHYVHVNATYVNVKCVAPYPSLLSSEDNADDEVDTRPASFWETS

“HGF R/c-MET Antibody clone L6E7 (Cell Signaling Technologies), as anti-c-MET ferrofluid” gave a recovery of c-MET cells of 20 to 40%.
